The values that follow come from patent US20090155251A1 (published 2009).

Test [1] has as its target T1, Mouse EphB4/Fc (R&D Systems) (mouse, UniProt P54761 16-539, limits assumed).
T1 construct: Bought reagent; also called EphB4/Fc fusion protein; not shown: Fc part, detected with anti-human Fc/IgG-FITC
T1 sequence (looked up): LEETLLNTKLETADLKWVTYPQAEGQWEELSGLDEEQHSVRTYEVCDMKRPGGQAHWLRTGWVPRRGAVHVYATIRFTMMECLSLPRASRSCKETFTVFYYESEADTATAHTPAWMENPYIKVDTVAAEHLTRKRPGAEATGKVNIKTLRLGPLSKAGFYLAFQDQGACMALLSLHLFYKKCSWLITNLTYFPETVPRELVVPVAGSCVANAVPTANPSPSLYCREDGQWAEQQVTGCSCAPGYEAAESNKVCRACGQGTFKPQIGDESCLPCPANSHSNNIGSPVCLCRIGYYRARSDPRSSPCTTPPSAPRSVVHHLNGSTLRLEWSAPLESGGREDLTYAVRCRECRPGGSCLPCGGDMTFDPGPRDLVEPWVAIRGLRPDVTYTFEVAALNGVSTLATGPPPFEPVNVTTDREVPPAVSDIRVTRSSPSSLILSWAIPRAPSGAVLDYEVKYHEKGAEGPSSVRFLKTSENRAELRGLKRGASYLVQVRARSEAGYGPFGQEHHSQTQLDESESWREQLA
Description: immunofluorescence on frozen KS biopsy sections, 5 ug/ml EphB4/Fc. The protocol:
Immunofluorescence detection of EphrinB2 with EPHB4-Fc was done as follows. Frozen sections fixed in 4% paraformaldehyde and blocked with 20% FBS were incubated with 5 μg/ml EphB4/Fc (R&D Systems) for 1 h at RT. Sections were then incubated with 10 μg/ml rabbit anti-human IgG-FITC in PBS (Jackson ImmunoResearch Laboratories West Grove, Pa.) at RT for 1 hour. Nuclei were counterstained with DAPI and sections mounted as above. Human Fc (Jackson ImmunoResearch) was used as the negative control.

The target of test [2] is T2, B4ECv3-FC (EphB4 extracellular domain fused to human IgG1 Fc) (human, UniProt P54760 16-539).
T2 construct: extracellular domain; also called B4EC-FC; not shown: Fc portion of human IgG1 (pIG vector)
T2 sequence (looked up): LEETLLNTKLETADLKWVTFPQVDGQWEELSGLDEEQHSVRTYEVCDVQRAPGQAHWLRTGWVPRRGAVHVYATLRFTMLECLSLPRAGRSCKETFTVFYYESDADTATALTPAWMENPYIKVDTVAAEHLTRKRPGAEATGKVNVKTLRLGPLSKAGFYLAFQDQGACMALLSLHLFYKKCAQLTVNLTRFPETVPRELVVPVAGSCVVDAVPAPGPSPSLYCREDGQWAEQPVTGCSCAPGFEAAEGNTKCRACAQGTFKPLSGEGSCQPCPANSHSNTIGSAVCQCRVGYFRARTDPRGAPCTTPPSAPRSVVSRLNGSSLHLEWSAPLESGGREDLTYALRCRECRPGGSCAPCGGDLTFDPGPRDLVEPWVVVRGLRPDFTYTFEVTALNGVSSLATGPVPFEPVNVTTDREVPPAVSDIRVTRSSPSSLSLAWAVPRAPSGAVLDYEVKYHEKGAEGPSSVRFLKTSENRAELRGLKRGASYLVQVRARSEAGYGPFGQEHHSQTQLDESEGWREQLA
The test can be described thus: biochemical assays: Protein A-agarose and nitrocellulose binding of B2EC-AP; inhibition assays (FIGS. 6-7). The protocol:
Protein A-agarose based assay. 10 μl of Protein A-agarose were incubated in Eppendorf tubes with 50 μl of indicated amount of B4EC-FC diluted in binding buffer BB (20 mM Tris-HCl, 0.15 M NaCl, 0.1% BSA pH 8). After incubation for 30 min on shaking platform, Protein AAagarose beads were washed twice with 1.4 ml of BB, followed by application of 50 μl of B2ECAP reagent at the final concentration of 50 nM. Binding was performed for 30 min on shaking platform, and then tubes were centrifuged and washed once with 1.4 ml of BB. Colorimetric reaction of precipitated AP was measured after application of PNPP (FIG. 6).
Nitrocellulose based assay. B4EC-FC was serially diluted in 20 mM Tris-HCl, 0.15 M NaCl, 50 μg/ml BSA, pH 8. 2 μl of each fraction were applied onto nitrocellulose strip and spots were dried out for 3 min. Nitrocellulose strip was blocked with 5% non-fat milk for 30 min, followed by incubation with 5 nM B2EC-AP reagent. After 45 min incubation for binding, nitrocellulose was washed twice with 20 mM Tris-HCl, 0.15 M NaCl, 50 μg/ml BSA, pH 8 and color was developed by application of alkaline phosphatase substrate Sigma Fast (Sigma).

For test [3], the target named is T3, B4EC-NT (soluble EphB4 extracellular domain without epitope or purification tags) (human, UniProt P54760 16-539).
T3 construct: extracellular domain; also called EphB4ECnt; B4ECv3NT
T3 sequence (looked up): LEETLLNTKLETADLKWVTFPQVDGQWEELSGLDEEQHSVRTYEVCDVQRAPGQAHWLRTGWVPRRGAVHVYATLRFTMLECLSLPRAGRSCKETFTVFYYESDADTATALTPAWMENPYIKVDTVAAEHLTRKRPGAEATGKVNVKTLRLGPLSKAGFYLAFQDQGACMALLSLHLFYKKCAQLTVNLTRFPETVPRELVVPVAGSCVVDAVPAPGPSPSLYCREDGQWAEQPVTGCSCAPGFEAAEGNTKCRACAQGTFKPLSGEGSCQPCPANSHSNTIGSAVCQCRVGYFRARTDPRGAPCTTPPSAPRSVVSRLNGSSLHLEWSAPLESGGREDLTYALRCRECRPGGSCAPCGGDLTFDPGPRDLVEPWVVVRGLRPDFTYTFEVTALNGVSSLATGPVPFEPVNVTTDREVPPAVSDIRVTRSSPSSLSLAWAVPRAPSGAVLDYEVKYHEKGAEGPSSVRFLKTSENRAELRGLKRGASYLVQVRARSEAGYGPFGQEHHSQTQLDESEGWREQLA
The test can be described thus: B2EC-AP binding and competition assays on conditioned media of stable cell lines.

Test [4] addresses T4, B4ECv3 (soluble EphB4 extracellular domain with C-terminal V5 epitope tag and 6xHis tag) (human, UniProt P54760 16-537).
T4 construct: also called EphB4ECv3; GCF2 (v.3)
T4 sequence: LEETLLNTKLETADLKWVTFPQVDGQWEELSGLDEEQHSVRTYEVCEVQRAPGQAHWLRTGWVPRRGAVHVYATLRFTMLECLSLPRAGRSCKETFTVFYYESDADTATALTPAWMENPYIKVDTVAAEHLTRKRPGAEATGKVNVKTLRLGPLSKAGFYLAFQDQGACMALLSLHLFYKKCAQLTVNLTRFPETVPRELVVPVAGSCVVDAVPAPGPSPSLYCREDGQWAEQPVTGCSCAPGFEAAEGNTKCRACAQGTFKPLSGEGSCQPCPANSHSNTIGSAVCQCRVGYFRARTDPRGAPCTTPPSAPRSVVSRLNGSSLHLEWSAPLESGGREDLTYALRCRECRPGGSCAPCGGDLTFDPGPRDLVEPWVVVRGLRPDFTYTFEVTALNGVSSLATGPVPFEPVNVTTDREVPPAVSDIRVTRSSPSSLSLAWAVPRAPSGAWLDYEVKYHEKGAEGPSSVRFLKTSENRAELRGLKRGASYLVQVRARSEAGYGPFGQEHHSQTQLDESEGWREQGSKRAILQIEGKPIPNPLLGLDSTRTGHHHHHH
Description: biochemical assays: Ni-NTA bead binding of B2-AP; inhibition in solution and cell based. How it is done:
10 μl of Ni-NTA-Agarose were incubated in microcentrifuge tubes with 50 μl of indicated amount of B4ECv3 diluted in binding buffer BB (20 mM Tris-HCl, 0.15 M NaCl, 0.1% bovine serum albumin pH 8) After incubation for 30 min on shaking platform, Ni-NTA beads were washed twice with 1.4 ml of BB, followed by application of 50 μl of B2-AP in the final concentration of 50 nM. Binding was performed for 30 min on shaking platform, and then tubes were centrifuged and washed one time with 1.4 ml of BB. Amount of precipitated AP was measured colorimetrically after application of PNPP.
Inhibition in solution. Different amounts of B4ECv3 diluted in 50 μl of BB were pre-incubated with 50 μl of 5 nM B2EC-AP reagent (protein fusion of Ephrin B2 ectodomain with placental alkaline phosphatase). After incubation for 1 h, unbound B2EC-AP was precipitated with 5,000 HEK293 cells expressing membrane-associated full-length EphB4 for 20 min. Binding reaction was stopped by dilution with 1.2 ml of BB, followed by centrifugation for 10 min. Supernatants were discarded and alkaline phosphatase activities associated with collected cells were measured by adding para-nitrophenyl phosphate (PNPP) substrate.
Cell based inhibition. B4ECv3 was serially diluted in 20 mM Tris-HCl, 0.15 M NaCl, 0.1% BSA, pH 8 and mixed with 5,000 HEK293 cells expressing membrane-associated full-length Ephrin B2. […]

The target in test [5] is T5, B4-CF2 (EphB4 extracellular domain with deleted globular domain: Cys-rich and two FNIII domains, V5 and 6xHis … (human, UniProt P54760 16-537)).
T5 sequence: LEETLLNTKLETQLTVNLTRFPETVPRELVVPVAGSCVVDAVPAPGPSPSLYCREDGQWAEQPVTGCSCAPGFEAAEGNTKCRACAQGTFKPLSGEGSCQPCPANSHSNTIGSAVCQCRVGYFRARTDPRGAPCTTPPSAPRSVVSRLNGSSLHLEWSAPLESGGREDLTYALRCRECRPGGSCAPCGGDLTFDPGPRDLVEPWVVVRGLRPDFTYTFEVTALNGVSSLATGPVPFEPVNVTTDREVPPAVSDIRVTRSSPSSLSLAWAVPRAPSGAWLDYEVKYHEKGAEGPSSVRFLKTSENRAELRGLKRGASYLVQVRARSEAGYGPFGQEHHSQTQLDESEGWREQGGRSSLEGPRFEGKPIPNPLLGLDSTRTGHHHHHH
Description: Ephrin B2-AP binding to B4 proteins immobilized on Ni resin or nitrocellulose membrane. The protocol:
(§1) To confirm ability of the purified recombinant proteins to bind Ephrin B2, they were tested in an in vitro binding assay. As expected, GC, GCF1 and GCF2, but not CF2 are binding the cognate ligand Ephrin B2 as confirmed by interaction between Ephrin B2—alkaline phosphatase (Ephrin B2-AP) fusion protein with the B4 proteins immobilized on Ni²⁺-resin or on nitrocellulose membrane (FIG. 17).
(§2) To test ligand binding properties of the proteins, 10 μl of Ni-NTA-Agarose (Qiagen) were incubated in microcentrifuge tubes with 10-500 ng sample of a B4-ECD protein diluted in 0.5 ml of binding buffer BB (20 mM Tris-HCl, 0.15 M NaCl, 0.1% bovine serum albumin, pH 8). After incubation for 30 min on shaking platform, Ni-NTA beads were washed twice with 1.4 ml of BB, followed by addition of B2-AP fusion protein at concentration of 50 nM. Binding was performed for 30 min on a shaking platform. Tubes were centrifuged and washed once with 1.4 ml of BB. Amount of precipitated AP was measured colorimetrically at 420 nm after application of p-nitrophenyl phosphate (PNPP) and incubation for 5-30 min.

In test [6] the target is T6, B4-GC (EphB4 globular domain + Cys-rich domain, C-terminal 6xHis) (human, UniProt P54760 16-326).
T6 construct: Printed mature EphB4 part counts 311 residues, the text says 1-312; also called B4EC-GC
T6 sequence: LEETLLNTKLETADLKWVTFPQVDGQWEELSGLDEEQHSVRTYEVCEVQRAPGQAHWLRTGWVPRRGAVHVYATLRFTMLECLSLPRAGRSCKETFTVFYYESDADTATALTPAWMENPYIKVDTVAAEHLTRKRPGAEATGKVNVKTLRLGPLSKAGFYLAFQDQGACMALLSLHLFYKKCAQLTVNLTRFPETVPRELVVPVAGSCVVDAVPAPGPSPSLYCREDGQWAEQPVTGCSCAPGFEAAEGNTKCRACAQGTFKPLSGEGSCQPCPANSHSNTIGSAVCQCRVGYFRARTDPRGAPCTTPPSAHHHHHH
The test is described as above. How it is done: as §1, §2

The target in test [7] is T7, B4-GCF2 (recombinant soluble EphB4 extracellular domain: globular, Cys-rich and two FNIII domains, C-terminal … (human, UniProt P54760 16-537)).
T7 construct: Expressed in HEK293T, glycosylated
T7 sequence: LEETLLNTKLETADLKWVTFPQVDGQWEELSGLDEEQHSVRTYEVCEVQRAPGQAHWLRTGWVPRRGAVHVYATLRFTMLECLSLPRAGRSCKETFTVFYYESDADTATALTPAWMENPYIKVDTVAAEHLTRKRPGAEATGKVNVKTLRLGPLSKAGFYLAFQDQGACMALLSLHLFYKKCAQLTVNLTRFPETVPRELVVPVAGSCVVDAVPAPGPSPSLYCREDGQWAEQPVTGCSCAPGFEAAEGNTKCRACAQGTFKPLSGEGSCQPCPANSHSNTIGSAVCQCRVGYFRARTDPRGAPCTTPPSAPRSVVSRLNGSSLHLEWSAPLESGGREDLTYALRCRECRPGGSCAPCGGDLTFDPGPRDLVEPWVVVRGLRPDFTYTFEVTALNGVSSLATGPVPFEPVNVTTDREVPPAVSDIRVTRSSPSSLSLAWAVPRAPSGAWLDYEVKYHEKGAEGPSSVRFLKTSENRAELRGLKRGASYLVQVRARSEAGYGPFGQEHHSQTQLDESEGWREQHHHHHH
The description is as above. How it is done: as §1, §2

B1: ephrin B2 on tumor cells of human Kaposi's sarcoma biopsy sections (ligand, UniProt P52799 28-333, looked up)
chain: IVLEPIYWNSSNSKFLPGQGLVLYPQIGDKLDIICPKVDSKTVGQYEYYKVYMVDKDQADRCTIKKENTPLLNCAKPDQDIKFTIKFQEFSPNLWGLEFQKNKDYYIISTSNGSLEGLDNQEGGVCQTRAMKILMKVGQDASSAGSTRNKDPTRRPELEAGTNGRSSTTSPFVKPNPGSSTDGNSAGHSGNNILGSEVALFAGIASGCIIFIVIIITLVVLLLKYRRRHRKHSPQHTTTLSLSTLATPKRSGNNNGSEPSDIIIPLRTADSVFCPHYEKVSGDYGHPVYIVQEMPPQSPANIYYKV
notes: whole, on cells
On to B1, for which, in test [1], the binding result is “binds”.

B2: Ephrin B2-alkaline phosphatase (Ephrin B2-AP) fusion protein: Ephrin B2 ectodomain fused with placental alkaline phosphatase (ligand, human, UniProt P52799 28-229, looked up)
chain: IVLEPIYWNSSNSKFLPGQGLVLYPQIGDKLDIICPKVDSKTVGQYEYYKVYMVDKDQADRCTIKKENTPLLNCAKPDQDIKFTIKFQEFSPNLWGLEFQKNKDYYIISTSNGSLEGLDNQEGGVCQTRAMKILMKVGQDASSAGSTRNKDPTRRPELEAGTNGRSSTTSPFVKPNPGSSTDGNSAGHSGNNILGSEVALFA
notes: extracellular domain; Secreted reagent; also called B2EC-AP; B2ECAP; not shown: placental alkaline phosphatase of vector pAPTag2 (GenHunter)
Regarding B2, the binding result was “binds” in test [2]; “binds” in test [3]; “binds” in test [4]; “no binding (tested: 50 nM B2-AP; 10-500 ng B4-ECD protein)” in test [5]; “binds” in test [6]; “binds” in test [7].
